± gives the uncertainty stated by the source.
Assay: amyloid nucleation score (Sup35N fusion, yeast selection) (log enrichment); library NNK2; higher = more nucleation; inactive = no reads after selection
Summary of the method: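 On medium lacking adenine and uracil, psi-negative yeast expressing peptides of 20 random codons fused to Sup35N were grown 7 days at 30°C after a 24-hour induction with 100 μM copper sulfate. Illumina sequencing of input and output plasmid inserts gave the reads, and sequences under 100 input reads were excluded. The nucleation score is the DiMSum log enrichment of output over input reads, centred on the mode score of non-aggregating sequences.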

Q: With KSLYCVNFLCRPECANPSSS as the substance, how does the amyloid nucleation score read?
A: The amyloid nucleation score was 6.592 ± 0.029.

Q: Which amyloid nucleation score does the source give for KSMFRTNLYIIILQSSTRFQ here?
A: Its amyloid nucleation score is -1.06 ± 0.76.

Q: For KSRFIFRVSVLDPRASVAWL, which amyloid nucleation score is on record?
A: Its amyloid nucleation score is “inactive”.

Q: With KSSSAVIW as the substance, how does the amyloid nucleation score read?
A: The amyloid nucleation score was -0.045 ± 0.53.

Q: For KSTATSYVMPK, which amyloid nucleation score is on record?
A: Its amyloid nucleation score is -0.072 ± 0.25.

Q: With KSVQDNDMSPACRAD as the substance, how does the amyloid nucleation score read?
A: The amyloid nucleation score was 0.804 ± 0.45.

Q: For KSVTDSL, which amyloid nucleation score is on record?
A: Its amyloid nucleation score is 0.878 ± 0.44.

Q: For KSYLWASAAVEGNCYNPVNR, which amyloid nucleation score is on record?
A: The amyloid nucleation score was -0.195 ± 0.48.

Q: With KTFTPSIELGYMGHCDCDT as the substance, how does the amyloid nucleation score read?
A: The amyloid nucleation score was -1.03 ± 0.45.

Q: For KTIQVGQVA, which amyloid nucleation score is on record?
A: The amyloid nucleation score was 1.24 ± 0.29.

Q: Which amyloid nucleation score does the source give for KTIRRDVCIVVLSLQSDLNM here?
A: Its amyloid nucleation score is 5.62 ± 0.069.

Q: For KTLTVFAISYC, which amyloid nucleation score is on record?
A: Its amyloid nucleation score is 0.482 ± 0.55.

Q: Which amyloid nucleation score does the source give for KTNHEELKA here?
A: Its amyloid nucleation score is “inactive”.

Q: With KTPVGYTRRGSPFTR as the substance, how does the amyloid nucleation score read?
A: The amyloid nucleation score was 1.16 ± 0.33.

Q: For KTREFNEQIVYGASVYVYQG, which amyloid nucleation score is on record?
A: The amyloid nucleation score was 0.672 ± 0.43.

Q: With KTRLPGVL as the substance, how does the amyloid nucleation score read?
A: The amyloid nucleation score was “inactive”.

Q: With KVECEVWVRWVRCDGCAAGK as the substance, how does the amyloid nucleation score read?
A: Its amyloid nucleation score is 1.22 ± 0.2.

Q: For KVFLFIFGLLTESPGCDQSP, which amyloid nucleation score is on record?
A: The amyloid nucleation score was -0.536 ± 0.4.

Q: For KVIWIRCLFLYMCWAAHG, which amyloid nucleation score is on record?
A: Its amyloid nucleation score is -0.557 ± 0.78.

Q: Which amyloid nucleation score does the source give for KVLMLQHPIGYLLNILTMS here?
A: The amyloid nucleation score was -0.017 ± 0.41.

Q: For KVQHLQR, which amyloid nucleation score is on record?
A: Its amyloid nucleation score is 0.403 ± 0.26.

Q: Which amyloid nucleation score does the source give for KVRDCIMPRCRGRVCICNYG here?
A: Its amyloid nucleation score is -0.29 ± 0.25.

Q: With KVRTLINLRSRVTLRYDLSI as the substance, how does the amyloid nucleation score read?
A: The amyloid nucleation score was -0.237 ± 0.24.

Q: With KVSDRVGLEPKVCAQRRRNL as the substance, how does the amyloid nucleation score read?
A: The amyloid nucleation score was 0.025 ± 0.27.

Q: With KVSVTMHLAKMDFCRLWG as the substance, how does the amyloid nucleation score read?
A: Its amyloid nucleation score is 7.11 ± 0.046.

Q: With KVYSKCFNGFRS as the substance, how does the amyloid nucleation score read?
A: Its amyloid nucleation score is 0.164 ± 0.8.

Q: Which amyloid nucleation score does the source give for KWDWICSVRCRVRSAYQMSN here?
A: The amyloid nucleation score was “inactive”.

Q: For KWIMWLDRYPDTSPCILYAQ, which amyloid nucleation score is on record?
A: The amyloid nucleation score was 4.42 ± 0.055.

Q: For KYCCWLRCGLIYNWGGNQDV, which amyloid nucleation score is on record?
A: The amyloid nucleation score was 5.14 ± 0.064.

Q: Which amyloid nucleation score does the source give for KYGAPS here?
A: The amyloid nucleation score was -0.029 ± 1.1.

Q: For KYMLLCSICIFRNQGKKFRL, which amyloid nucleation score is on record?
A: The amyloid nucleation score was 8.384 ± 0.052.

Q: Which amyloid nucleation score does the source give for KYNLRDSNCSTCMFGSSRVS here?
A: The amyloid nucleation score was 4.251 ± 0.04.

Q: For KYRKSGSERTRARTGVCTVW, which amyloid nucleation score is on record?
A: The amyloid nucleation score was 0.585 ± 0.66.

Q: For KYRTYPGVGIIGRVDSSLRT, which amyloid nucleation score is on record?
A: Its amyloid nucleation score is 0.741 ± 0.51.

Q: For KYSNVTCWFSDHLGWRFHTF, which amyloid nucleation score is on record?
A: The amyloid nucleation score was “inactive”.

Q: Which amyloid nucleation score does the source give for LAFRFDVLKWINA here?
A: Its amyloid nucleation score is -0.263 ± 0.27.

Q: Which amyloid nucleation score does the source give for LAGYNFLKETRDMVTIMAYE here?
A: Its amyloid nucleation score is “inactive”.

Q: Which amyloid nucleation score does the source give for LAHETLCLDTYRDPW here?
A: Its amyloid nucleation score is -1.54 ± 1.

Q: For LAMLRS, which amyloid nucleation score is on record?
A: The amyloid nucleation score was 1.17 ± 0.34.

Q: Which amyloid nucleation score does the source give for LAPPKKAFISVKMSLDRYCV here?
A: Its amyloid nucleation score is -0.305 ± 0.26.

Q: For LAPVYEFEVWIHGIRGRCAW, which amyloid nucleation score is on record?
A: The amyloid nucleation score was 4.18 ± 0.065.

Q: With LAQPCQE as the substance, how does the amyloid nucleation score read?
A: Its amyloid nucleation score is -0.033 ± 0.55.

Q: With LAQQRPLRQRTMRHGSRFTA as the substance, how does the amyloid nucleation score read?
A: The amyloid nucleation score was 0.671 ± 0.43.

Q: Which amyloid nucleation score does the source give for LAQRSNFRASCWINFLGWLD here?
A: Its amyloid nucleation score is “inactive”.

Q: Which amyloid nucleation score does the source give for LASHVVWTDKN here?
A: Its amyloid nucleation score is 6.635 ± 0.041.

Q: With LATLVNCCTIVNRSNFGIMH as the substance, how does the amyloid nucleation score read?
A: The amyloid nucleation score was 6.985 ± 0.061.

Q: With LCASHIYL as the substance, how does the amyloid nucleation score read?
A: Its amyloid nucleation score is 0.087 ± 0.79.

Q: With LCERYWKALK as the substance, how does the amyloid nucleation score read?
A: Its amyloid nucleation score is “inactive”.

Q: With LCFFT as the substance, how does the amyloid nucleation score read?
A: The amyloid nucleation score was 0.383 ± 0.74.

Q: Which amyloid nucleation score does the source give for LCFMF here?
A: The amyloid nucleation score was 0.4 ± 0.51.

Q: For LCGHSNTAVWARHPEYSLVS, which amyloid nucleation score is on record?
A: The amyloid nucleation score was “inactive”.

Q: With LCHLVFVVSDWRQRLRVFTV as the substance, how does the amyloid nucleation score read?
A: The amyloid nucleation score was 4.37 ± 0.05.

Q: Which amyloid nucleation score does the source give for LCLELFKQSVQFGLC here?
A: The amyloid nucleation score was 0.325 ± 0.35.

Q: With LCLTR as the substance, how does the amyloid nucleation score read?
A: The amyloid nucleation score was -0.307 ± 0.63.

Q: Which amyloid nucleation score does the source give for LCNSEIFNMANISMS here?
A: Its amyloid nucleation score is 0.498 ± 0.19.

Q: With LCNSTNSESIIVLDITALTH as the substance, how does the amyloid nucleation score read?
A: Its amyloid nucleation score is 0.405 ± 0.51.

Q: Which amyloid nucleation score does the source give for LCQNKTMTIGRFKIGHKWYP here?
A: The amyloid nucleation score was 0.004 ± 1.1.

Q: For LCRNSSVFRCSGK, which amyloid nucleation score is on record?
A: The amyloid nucleation score was 0.311 ± 0.17.

Q: For LCSRFALWVRKF, which amyloid nucleation score is on record?
A: The amyloid nucleation score was -0.291 ± 0.63.

Q: For LCSSKETDMPFLVLQSLKSN, which amyloid nucleation score is on record?
A: The amyloid nucleation score was -0.791 ± 0.78.

Q: Which amyloid nucleation score does the source give for LCVYMFT here?
A: The amyloid nucleation score was 3.51 ± 0.12.

Q: Which amyloid nucleation score does the source give for LCWEVRTLEFIGFTQSYGKG here?
A: The amyloid nucleation score was -0.005 ± 0.33.

Q: With LCYGFEYHVDGLYNVSYESS as the substance, how does the amyloid nucleation score read?
A: The amyloid nucleation score was 0.298 ± 0.37.

Q: With LDAGCRMYWGVRLEFRICNL as the substance, how does the amyloid nucleation score read?
A: The amyloid nucleation score was 4.79 ± 0.062.

Q: Which amyloid nucleation score does the source give for LDDPCSHYILGSGHDHVLRR here?
A: The amyloid nucleation score was 0.697 ± 0.81.

Q: With LDGITSIDG as the substance, how does the amyloid nucleation score read?
A: The amyloid nucleation score was -1.15 ± 0.74.

Q: For LDIYYMMYYFRFSWD, which amyloid nucleation score is on record?
A: The amyloid nucleation score was -2.64 ± 0.75.

Q: Which amyloid nucleation score does the source give for LDLALSQH here?
A: Its amyloid nucleation score is 1.54 ± 0.53.

Q: For LDLNFEWFW, which amyloid nucleation score is on record?
A: The amyloid nucleation score was “inactive”.

Q: With LDPSVLMLWLFYRVQSLHVS as the substance, how does the amyloid nucleation score read?
A: Its amyloid nucleation score is 0.008 ± 0.35.

Q: Which amyloid nucleation score does the source give for LDSSYY here?
A: Its amyloid nucleation score is “inactive”.

Q: Which amyloid nucleation score does the source give for LDWAWACSWVVA here?
A: The amyloid nucleation score was 0.389 ± 0.8.

Q: Which amyloid nucleation score does the source give for LEMCVLR here?
A: Its amyloid nucleation score is 0.23 ± 0.45.

Q: Which amyloid nucleation score does the source give for LEPGAFRSIVFRIND here?
A: The amyloid nucleation score was 0.961 ± 0.48.

Q: For LEQFYCTMGSSFNMNGGMVI, which amyloid nucleation score is on record?
A: Its amyloid nucleation score is -0.436 ± 0.29.

Q: For LERNSMPITVSWSGFEGLKG, which amyloid nucleation score is on record?
A: Its amyloid nucleation score is -0.295 ± 0.65.

Q: For LFACFRNMLV, which amyloid nucleation score is on record?
A: Its amyloid nucleation score is 0.504 ± 0.39.

Q: For LFAYCMDSHLHTTSKFILTL, which amyloid nucleation score is on record?
A: Its amyloid nucleation score is 0.047 ± 0.5.

Q: Which amyloid nucleation score does the source give for LFFYTYWC here?
A: Its amyloid nucleation score is “inactive”.

Q: Which amyloid nucleation score does the source give for LFGVYMLQVCVKNSKLSRSE here?
A: The amyloid nucleation score was -0.133 ± 1.

Q: Which amyloid nucleation score does the source give for LFINNDTNDNYH here?
A: The amyloid nucleation score was -1.18 ± 0.47.

Q: Which amyloid nucleation score does the source give for LFKCVSTGHYLLTFRVVVYG here?
A: Its amyloid nucleation score is -0.456 ± 0.39.

Q: Which amyloid nucleation score does the source give for LFKRGIVGDRGTKG here?
A: Its amyloid nucleation score is -0.905 ± 0.48.

Q: Which amyloid nucleation score does the source give for LFLQVGTAVGIRYINGAYLV here?
A: The amyloid nucleation score was -0.959 ± 0.38.

Q: Which amyloid nucleation score does the source give for LFLTHPARWSSNLRRLL here?
A: Its amyloid nucleation score is 0.069 ± 0.3.

Q: For LFMFGFGIL, which amyloid nucleation score is on record?
A: Its amyloid nucleation score is 0.05 ± 0.42.

Q: With LFMPGSFFDIFE as the substance, how does the amyloid nucleation score read?
A: Its amyloid nucleation score is -2.05 ± 0.78.
